Test results from the DeepSol protein solubility set.

Test: soluble on expression in E. coli; label from the status in PepcDB or PDB records

Sequence	soluble on expression in E. coli
MVAKKWVYYFGGGNADGNKNMKELLGGKGANLAEMVNLGIPVPPGFTITTEACKTYQETETIPQEVADQVRENVSRVEKEMGAKFGDPANPLLFSVRSGAAASMPGMMDTVLNLGLNKVTVDAWVRRAPRLERFVYDSYRRFITMYADIVMQVGREDFEEALSRMKERRGTKFDTDLTASDLKELCDGYLELFELKTGCSFPQDPVMQLFAAIKAVFRSWGNPRATIYRRMNNITGLLGTAVNVQAMVFGNINDRSATGVAFSRSPSTGENFFFGEYLVNAQGEDVVAGIRTPQQINHSLSLRWAKAHGVGEEERRKRYPSMEEAMPENYRLLCDVRKRLENHYRDMQDLEFTVQDGRLWLLQCRNGKRTIHAAVRIAIDMVNEGLISREEAVLRIDPYQVDHLMHPNLEPGAEKANKPIGRGLAASPGAAVGQVVFDAESAKEWSGRGKKVIMVRLETSPEDLAGMDAACGILTARGGMTSHAAVVARGMGKCCVSGCGDMVIRGKSFKLNGSVFREGDYITIDGSKGLIYAGKLKLRSPDLKGSFQTILQWCQEMKRLGVRTNADTPADAAKARSFGAEGVGLCRTEHMFFEGSRINFIREMILADSASGRKAALDKLLPIQRADFVGILRAMRGLPVTIRLLDPPLHEFVPHDAAAQFELAQKLGMPAEKVRNRVNALHELNPMLGHRGCRLGITYPEIYNMQVRAIIEAAIAVSEEGSSVIPEIMVPLVGKKEELSLIREEVVKTAEAVITKSGKRVHYTVGTMIEVPRAAVTADSIAQKADFFSFGTNDLTQMGCGFSRDDAGPFLRHYGNLGIYAQDPFQSIDQEGIGELVRIAVTKGRRVKPMLKMGICGEHGGDPATIGFCHKVGLDYVSCSPFRVPVAIVAAAHASIKDRRAAMKARKGFAAKL	soluble
MVARNDNLKPFSERSVDEARELGRKGGKASGEVRRKKADLKRAISIVLSSEVPSSKMAKTLKEMGYENTNEMAMVLSMTQKAIKGDVKAASWISNIIQPAKVEHEVEMSVGVDEKRKVAEEYIRGLFNNDTGNSTEENN	not soluble
MVATAKYGTPVIDGEIDEIWNTTEEIETKAVAMGSLDKNATAKVRVLWDENYLYVLAIVKDPVLNKDNSNPWEQDSVEIFIDENNHKTGYYEDDDAQFRVNYMNEQTFGTGGSPARFKTAVKLIEGGYIVEAAIKWKTIKPTPNTVIGFNIQVNDANEKGQRVGIISWSDPTNNSWRDPSKFGNLRLIK	soluble
MVDLGFSLYPERYDVTKSKAYIDLCHSYGAKRLFMSLLQLAPADHQMFHCYAELIAYANQLGIRVIADVSPSFISQAGWSDQLIERAHAFGLAGLRLDEALPLAEIVTLTRNPFGLKIELNMSTDKQLLMSLLATDAERSNIIGCHNFYPHEFTGLSWQHFKDMSRFYHEHDIETAAFITAQSASEGPWLLAEGLPTVEDHRHLPIGLQVELMKAIGTIDNILISNQFISEEELAACTQALARPVTTIKVRPIIDLTEVEEQIIGYPHCYRGDVSDYVIRSTMPRLVYAQESIAPRDQSKEVKRGSIIIDNDRYHRYKGELQIALKNFTVSSKANVVAEVREDYLSLLDDLRPWQEFCLEIAPS	not soluble
MVDNTSLSFEQIADFCGLHPLEVRGIADGEVARDIRGADPIGNGQLNREELDRAQANPDYRMKALVSRHAELLKPAKKAPRYTPVSRRQDRPDAIAWFLRHHPEVTDAQISKILGTTKATIEQVRARTHWNAANIKPVDPVTLGLVGQLELDALVKKAAEKKAKDDLKKGIVPEDPTLRPASEAGQFEPEVEEEEEDFRAPRGDLKAEDVFGKSTGYVDEEDEDLEHHHHHH	soluble
MVDPVGFAEAWKAQFPDSEPPRMELRSVGDIEQELERCKASIRRLEQEVNQERFRMIYLQTLLAKEKKSYDRQRWGFRRAAQAPDGASEPRASASRPQPAPADGADPPPAEEPEARPDGEGSPGKARPGTARRPGAAASGERDDRGPPASVAALRSNFERIRKGHGQPGADAEKPFYVNVEFHHERGLVKVNDKEVSDRISSLGSQAMQMERKKSQHGAGSSVGDASRPPYRGRSSESSCGVDGDYEDAELNPRFLKDNLIDANGGSRPPWPPLEYQPYQSIYVGGMMEGEGKGPLLRSQSTSEQEKRLTWPRRSYSPRSFEDCGGGYTPDCSSNENLTSSEEDFSSGQSSRVSPSPTTYRMFRDKSRSPSQNSQQSFDSSSPPTPQCHKRHRHCPVVVSEATIVGVRKTGQIWPNDGEGAFHGDADGSFGTPPGYGCAADRAEEQRRHQDGLPYIDDSPSSSPHLSSKGRGSRDALVSGALESTKASELDLEKGLEMRKWVLSGILASEETYLSHLEALLLPMKPLKAAATTSQPVLTSQQIETIFFKVPELYEIHKEFYDGLFPRVQQWSHQQRVGDLFQKLASQLGVYRAFVDNYGVAMEMAEKCCQANAQFAEISENLRARSNKDAKDPTTKNSLETLLYKPVDRVTRSTLVLHDLLKHTPASHPDHPLLQDALRISQNFLSSINEEITPRRQSMTVKKGEYRQLLKDSFMVELVEGARKLRHVFLFTDLLLCTKLKKQSGGKTQQYDCKWYIPLTDLSFQMVDELEAVPNIPLVPDEELDALKIKISQIKSDIQREKRANKGSKATERLKKKLSEQESLLLLMSPSMAFRVHSRNGKSYTFLISSDYERAEWRENIREQQKKCFRSFSLTSVELQMLTNSCVKLQTVHSIPLTINKEDDESPGLYGFLNVIVHSATGFKQSSNLYCTLEVDSFGYFVNKAKTRVYRDTAEPNWNEEFEIELEGSQTLRILCYEKCYNKTKIPKEDGESTDRLMGKGQVQLDPQALQDRDWQRTVIAMNGIEVKLSVKFNSREFSLKRMPSRKQTGVFGVKIAVVTKRERSKVPYIVRQCVEEIERRGMEEVGIYRVSGVATDIQALKAAFDVNNKDVSVMMSEMDVNAIAGTLKLYFRELPEPLFTDEFYPNFAEGIALSDPVAKESCMLNLLLSLPEANLLTFLFLLDHLKRVAEKEAVNKMSLHNLATVFGPTLLRPSEKESKLPANPSQPITMTDSWSLEVMSQVQVLLYFLQLEAIPAPDSKRQSILFSTEV	soluble
MVERMERTMPTTAVRDATSSRRFQPGQAVVGRVERVEEMETEERAALVRAGGQLVRARLEAPLAVGRLYLFEIHERQGTIYWKAIPLSEPASAPSGEEAVRGWQKAWKLPDAALPVLRQALKAGAAATKEEIAALTEAVKETGQPDAAEDVLAHLFRRRLPFSSAVFRALWAAKTGVPLAEGLGKLKAAIAALSAHPAALKLIRAMEKFLSPPLSAYEAAVRLLLSGEEEAETARALLARLGLAPLPEDRRLALREAVQCRRFADIIRQLGLTDEEAFLERWAALDAAYQSGALPAAEAKLWAAARATRDPALSLFCWLRRAAVRLGLEDEAALVRVGKIEDLPSAPSLKRLLLRFLHESGSEGAKRAAEAILDQLDGMAIAAGGDGLIEHVWISFPLPLGGRSSDFAVCWQGRRKQGGPLDADYNRIVCCLTLEELGEVIVDMRVQRRIVHISIFHDDPRLAVAAARMAPLVKERFQAHGYALSGIDVKATRSAPPPPSVFLFADSCSEVDCQA	not soluble
MVEVKNLVAITGPKMPYELARLLKISHARATRLAAAANAQNPTPSRARTSDAQAQQPAAASPKPPAEPVAAEPKKKRAKKATPVEAGLPPLTGKITGGHACAFDVVGESYYQPALRRLRNGRHMATDNDFVADIVAEPDNPHDPNACAVYIEGFKVGYLPRDAAADFQQQVADMGVTGTWRLQTKAKLSGGWGDRPMVGVLLSLPKSLEHHHHHH	soluble
MVFFSVVVPTYNRRPILEKCLRALEQQQISAETAIAGYEVVVVDDGSTDGTVDWLKAQASEFPHVRLFEQDHQGPARARNLGVQQAQGDTIIFIDSDLVVTPPFLQAHATGLEKGRQRLGSDRCFTYGAVINTCNFDNPTAEPFKVTDFSNAYFATGNVAIARHWLETAGLFDTAFQLYGWEDLELGVRLKNLGLKLIRCPEAVGYHWHPPFSLEQIPKLIDQESQRGRMGVLFYQKHPTWEVRLMIQMTWLHRLLWGTLSLGGFLNERTLRPLLAWLLKRDRPQLALEIARIFLNWNNVRSVYAAYRESQGLASSLEHHHHHH	soluble
MVFNFLIVSDEVEDFRREIAIDSEATFLDLQNAILDSVGYSHSELTSFFLCDEDWHKGQEITLMEMDTASDEDSYVMENTRLEEFIEDEHQRLVFEFDLMTERYFFIEVMDIVPGKSLSEPKLLTSEGLPPQQSSLDDLMDPTAIPTKQARGLDLEEDFFGDSEYNEDEIDREGFEGFDEITSDLSDNY	not soluble
MVGFLKHLVPKRFRKKELVIPVVRMQGAIMAGGNQFRPALNLASYAPLLEKAFAVKDAPAVAISLNSPGGSPVQARMIYNRIRQLAEEKDKKVLIFVEDVAASGGYMIALAGDEIIADPTSIVGSIGVVSGGFGFPEMLRKIGVERRVYTAGENKVILDPFQPEKEGDIDYLKSLQVEIHNVFIDMVKMRRGSKLKGDDALFSGLFWTGMRGLDLGLIDGLGDMREVLRRRYGTKVKLQLISGGRSLFGKKVPGVNMALGLNAERLAAGAVSGLAEVAEEKALWSRFGLLEHHHHHH	soluble
MVGNTFGRIFRVTTCGESYAGAFRKNLQIPKELFGGLIAIVDGVPPGIKLTADFVQEELDKRRPGKTPLDTPRKERDKVYIFSGVMEDDITTGAPVGMIIPNDVIEDEHINKHKSYKEVVRPGQAGYTFFKKYGQFADNIGAGRASGRETAARVAAGAVAKAVLDTMGIDVIAFVTEIHGIKAQENITYEMAKANYRKNEINCPDLEKAKEMIEELKRIKEEGDSVGGVVEIIARGVPAGLGEPVFDKLQATLAHALMSIGAIKGIEFGEGFGHTKLKGSESNDVPYYDEASGRVRFKTNRAGGILGGISNGEDIRIRVAVKPTPTISIPQKTVNMYTLENVEVEFNTRNDPSICPRIYPVCEAMVRIALLDALYIAKGYRAISSNIDPRWDRL	not soluble
MVHAFLIHTLRAPNTEDTGLCRVLYSCVFGAEKSPDDPRPHGAERDRLLRKEQILAVARQVESMCRLQQQASGRPPMDLQPQSSDEQVPLHEAPRGAFRLAAENPFQEPRTVVWLGVLSLGFALVLDAHENLLLAEGTLRLLTRLLLDHLRLLAPSTSLLLRADRIEGILTRFLPHGQLLFLNDQFVQGLEKEFSAAWPR	not soluble
MVHLAKYIVVTGGVVSSIGKGITAASIGRILRSYGLSVTAIKIDPYLNWDSGTLNPYQHGEVFVTDDGMETDLDLGHYERFLDSDLPGEANITTGKVYMSVINKERSGDYLGSCVQIIPHITDEIKSMIRKIADKSGAEVVLVEVGGTVGDIEGQPFLEALRQLRNEEGHENVMFVHVTYVPYLRAAGEFKTKPTQHSTKELRSTGINPDMIICRSEMPIDSSLKRKIAHFCDVEEEAVVNAPDASSIYEVPLVLDSERVGDYIVRRIELDVDGEADLSEWAGIVESLMIDEPVVTVGIVGKYVELEDSYISIREALKHAAAHLRVRVDIEWISADDAVNEEDLSRLDSILIPGGFGERGIAGKLEAVRFALENRVPIFGICLGMQCMVIEFARLNGMEGANSTEFDPETPYPVIDMMEEQKRIKNMGGTMRLGSYQCRIREGTLAHEAYGTELVGERHRHRFELNNEFREELESKGLIISGTSPDDFLVEMVEIKDHPWFLGCQFHPEFRSRPNRAHPLFVSFLRAALERSR	soluble
MVHYKLTYFNGRGAGECARQVFALADQKYEDVRLTQETFVPLKATFPFGQVPVLEVDGQQLAQSQAICRYLAKTFGFAGATPFESALIDSLADAYTDYRAEMKTYYYTALGFMTGDVDKPKTDVLLPARTKFLGFITKFLKKNSSGFLVGDKISWVDLLVAEHVADMTNRVPEYIEGFPEVKAHMERIQQTPRIKKWIETRPETPF	soluble
